Patent US10377818B2, “Method of treating glioma” (The Board of Trustees of the Leland Stanford Junior …, priority 2015, dated 2019)

B1: NLGN2: Recombinant soluble neuroligin-2 (protein, UniProt Q8NFZ4 15-677, looked up)
extracellular domain: QRGGGGPGGGAPGGPGLGLGSLGEERFPVVNTAYGRVRGVRRELNNEILGPVVQFLGVPYATPPLGARRFQPPEAPASWPGVRNATTLPPACPQNLHGALPAIMLPVWFTDNLEAAATYVQNQSEDCLYLNLYVPTEDGPLTKKRDEATLNPPDTDIRDPGKKPVMLFLHGGSYMEGTGNMFDGSVLAAYGNVIVATLNYRLGVLGFLSTGDQAAKGNYGLLDQIQALRWLSENIAHFGGDPERITIFGSGAGASCVNLLILSHHSEGLFQKAIAQSGTAISSWSVNYQPLKYTRLLAAKVGCDREDSAEAVECLRRKPSRELVDQDVQPARYHIAFGPVVDGDVVPDDPEILMQQGEFLNYDMLIGVNQGEGLKFVEDSAESEDGVSASAFDFTVSNFVDNLYGYPEGKDVLRETIKFMYTDWADRDNGEMRRKTLLALFTDHQWVAPAVATAKLHADYQSPVYFYTFYHHCQAEGRPEWADAAHGDELPYVFGVPMVGATDLFPCNFSKNDVMLSAVVMTYWTNFAKTGDPNQPVPQDTKFIHTKPNRFEEVVWSKFNSKEKQYLHIGLKPRVRDNYRANKVAFWLELVPHLHNLHTELFTTTTRLPPYATRWPPRPPAGAPGTRRPPPPATLPPEPEPEPGPRAYDRFPGDSRDYSTELS
modifications: extracellular domain
B2: brevican: Recombinant candidate protein from proteomic analyses of cortical slice conditioned media (protein, UniProt Q96GW7 23-911, looked up)
Brevican core protein: DVLEGDSSEDRAFRVRIAGDAPLQGVLGGALTIPCHVHYLRPPPSRRAVLGSPRVKWTFLSRGREAEVLVARGVRVKVNEAYRFRVALPAYPASLTDVSLALSELRPNDSGIYRCEVQHGIDDSSDAVEVKVKGVVFLYREGSARYAFSFSGAQEACARIGAHIATPEQLYAAYLGGYEQCDAGWLSDQTVRYPIQTPREACYGDMDGFPGVRNYGVVDPDDLYDVYCYAEDLNGELFLGDPPEKLTLEEARAYCQERGAEIATTGQLYAAWDGGLDHCSPGWLADGSVRYPIVTPSQRCGGGLPGVKTLFLFPNQTGFPNKHSRFNVYCFRDSAQPSAIPEASNPASNPASDGLEAIVTVTETLEELQLPQEATESESRGAIYSIPIMEDGGGGSSTPEDPAEAPRTLLEFETQSMVPPTGFSEEEGKALEEEEKYEDEEEKEEEEEEEEVEDEALWAWPSELSSPGPEASLPTEPAAQEESLSQAPARAVLQPGASPLPDGESEASRPPRVHGPPTETLPTPRERNLASPSPSTLVEAREVGEATGGPELSGVPRGESEETGSSEGAPSLLPATRAPEGTRELEAPSEDNSGRTAPAGTSVQAQPVLPTDSASRGGVAVVPASGDCVPSPCHNGGTCLEEEEGVRCLCLPGYGGDLCDVGLRFCNPGWDAFQGACYKHFSTRRSWEEAETQCRMYGAHLASISTPEEQDFINNRYREYQWIGLNDRTIEGDFLWSDGVPLLYENWNPGQPDSYFLSGENCVVMVWHDQGQWSDVPCNYHLSYTCKMGLVSCGPPPELPLAQVFGRPRLRYEVDTVLRYRCREGLAQRNLPLIRCQENGRWEAPQISCVPRRPARALHPEEDPEGRQGRLLGRWKALLIPPSSPMPGP

Test system: SU-pcGBM2 cells
Test: EdU incorporation assay, proliferation index of pHGG cells (SU-pcGBM2)
Format: cell-based, human

Molecule | effect on pHGG cell proliferation (recombinant NLGN2 at 1, 10 or 100 nM for 24 hours) | effect on proliferation index relative to aCSF control (recombinant candidate proteins at 100 nM for 24 hours)
B1 | No effect of NLGN2 on pHGG cell proliferation was observed | –
B2 | – | did not differ
